Laboratory results from patent US20140087995A1 (published 2014).
Numbered stars: 1 amine (or outer) side, 2 acyl side, 3 side chain; on linkers, the order of the positions; unused ones are H or OH. Bridge positions count the residues as written; N and C are the ends. * marks the point of attachment. C20 diacid = O=C(O)CCCCCCCCCCCCCCCCCCC(=O)*; γGlu = O=C(O)[C@H](CCC(=O)[*:2])N[*:1]

T1: human calcitonin receptor (human, UniProt P30988 25-474)
T1 construct: whole, on cells; Assay used cell membranes of the transfected BHK cells; also called hCTR; hCT
T1 sequence (looked up): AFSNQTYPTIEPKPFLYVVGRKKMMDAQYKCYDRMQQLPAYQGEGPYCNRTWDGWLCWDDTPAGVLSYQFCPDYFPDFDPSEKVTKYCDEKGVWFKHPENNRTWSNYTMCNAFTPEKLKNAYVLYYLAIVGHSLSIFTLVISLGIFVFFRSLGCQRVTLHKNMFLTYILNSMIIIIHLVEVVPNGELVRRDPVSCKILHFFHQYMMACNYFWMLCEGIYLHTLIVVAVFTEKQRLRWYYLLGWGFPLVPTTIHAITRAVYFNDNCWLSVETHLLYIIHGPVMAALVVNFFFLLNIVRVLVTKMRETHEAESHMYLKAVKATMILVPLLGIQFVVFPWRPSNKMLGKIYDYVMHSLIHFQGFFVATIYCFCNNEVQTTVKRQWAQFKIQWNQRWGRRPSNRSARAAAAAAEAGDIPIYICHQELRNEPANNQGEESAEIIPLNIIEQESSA


What was measured:
[1] = target: T1, human calcitonin receptor; test: ratio IC50 hCTR / IC50 hAmylin-R of the two SPA competition assays; reference: human amylin receptor
Protocol: The resulting pellet was resuspended, homogenized and centrifuged (20.000 rpm, 15 min) in a buffer containing 20 mM Na-HEPES and 0.1 mM EDTA (pH 7.4, buffer 2). The resulting pellet was resuspended in buffer 2 and protein concentration was measured (BCA protein Assay, Pierce). The homogenate was kept cold during the whole procedure. The membranes were kept at −80° C. until use. The assay was performed in a 384 well Optiplate (PerkinElmer) in a total volume of 40 ul. Membranes were mixed with SPA beads. Final concentration of membranes 35 ng/μL final and SPA beads was 0.05 mg/well. Test-compounds were dissolved in DMSO and further diluted in assay buffer (50 mM Hepes, pH 7.4, 1 mM CaCl2, 5 mM MgCl₂, 0.1% OA and 0.02% Tween20). […] The final mixture was incubated with shaking at 400 rpm for 120 min at 25° C. prior to centrifugation (1500 rpm, 10 min). Samples were analyzed on TopCounter™ (Packard). The IC₅₀ was calculated using (one site binding competition analysis) GraphPad Prism5 as a measure of receptor affinity.
Membranes were prepared in the following way; the cells were rinsed with PBS and incubated with Versene for approximately 5 min before harvesting. The cells were flushed with PBS and the cell-suspension was centrifuged for 5 min at 1000 rpm. Cells were homogenized (Ultrathurrax) in a buffer containing 20 mM Na-HEPES and 10 mM EDTA (pH 7.4) and centrifuged at 20.000 rpm for 15 min. The resulting pellet was resuspended, homogenized and centrifuged (20.000 rpm, 15 min) in a buffer containing 20 mM Na-HEPES and 0.1 mM EDTA (pH 7.4, buffer 2). The resulting pellet was resuspended in buffer 2 and protein concentration was measured (BCA protein Assay, Pierce). The homogenate was kept cold during the whole procedure. The membranes were kept at −80° C. until use. Assay was performed in a 384 well Optiplate (PerkinElmer) in a total volume of 40 ul. Membranes were mixed with SPA beads.

[2] = target: T1, human calcitonin receptor; test: SPA radioligand competition (125I-calcitonin), membranes of BHK cells with human calcitonin receptor
Outline: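 BHK hCTR membranes 35 ng/μL + SPA beads 0.05 mg/well; buffer 50 mM Hepes pH 7.4, 1 mM CaCl2, 5 mM MgCl₂, 0.1% OA, 0.02% Tween20. 120 min, 25° C., shaking. Scintillation count; IC50 by one-site binding competition.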

Binder | Ratio hCT/hAmylin binding [1] | IC50 [2]
{C20 diacid-γGlu}-KCNTATCATQRLANFLRHSSPNFGAIPSSTPVGSETY-NH2 (disulfide 2-7; SMILES CC[C@H](C)[C@H](NC(=O)[C@H](C)NC(=O)CNC(=O)[C@H](Cc1ccccc1)NC(=O)[C@H](CC(N)=O)NC(=O)[C@@H]1CCCN1C(=O)[C@H](CO)NC(=O)[C@H](CO)NC(=O)[C@H](Cc1c[nH]cn1)NC(=O)[C@H](CCCNC(=N)N)NC(=O)[C@H](CC(C)C)NC(=O)[C@H](Cc1ccccc1)NC(=O)[C@H](CC(N)=O)NC(=O)[C@H](C)NC(=O)[C@H](CC(C)C)NC(=O)[C@H](CCCNC(=N)N)NC(=O)[C@H](CCC(N)=O)NC(=O)[C@@H](NC(=O)[C@H](C)NC(=O)[C@@H]1CSSC[C@H](NC(=O)[C@H](CCCCN)NC(=O)CC[C@H](NC(=O)CCCCCCCCCCCCCCCCCCC(=O)O)C(=O)O)C(=O)N[C@@H](CC(N)=O)C(=O)N[C@@H]([C@@H](C)O)C(=O)N[C@@H](C)C(=O)N[C@@H]([C@@H](C)O)C(=O)N1)[C@@H](C)O)C(=O)N1CCC[C@H]1C(=O)N[C@@H](CO)C(=O)N[C@@H](CO)C(=O)N[C@H](C(=O)N1CCC[C@H]1C(=O)N[C@H](C(=O)NCC(=O)N[C@@H](CO)C(=O)N[C@@H](CCC(=O)O)C(=O)N[C@H](C(=O)N[C@@H](Cc1ccc(O)cc1)C(N)=O)[C@@H](C)O)C(C)C)[C@@H](C)O, Synthetic analogue; also called compound 28) | 20.5 | 12.5 nM
{C20 diacid-γGlu}-KCNTATCATQRLAEFLRHSSPNFGAIPSSTNVGSRTY-NH2 (disulfide 2-7; SMILES CC[C@H](C)[C@H](NC(=O)[C@H](C)NC(=O)CNC(=O)[C@H](Cc1ccccc1)NC(=O)[C@H](CC(N)=O)NC(=O)[C@@H]1CCCN1C(=O)[C@H](CO)NC(=O)[C@H](CO)NC(=O)[C@H](Cc1c[nH]cn1)NC(=O)[C@H](CCCNC(=N)N)NC(=O)[C@H](CC(C)C)NC(=O)[C@H](Cc1ccccc1)NC(=O)[C@H](CCC(=O)O)NC(=O)[C@H](C)NC(=O)[C@H](CC(C)C)NC(=O)[C@H](CCCNC(=N)N)NC(=O)[C@H](CCC(N)=O)NC(=O)[C@@H](NC(=O)[C@H](C)NC(=O)[C@@H]1CSSC[C@H](NC(=O)[C@H](CCCCN)NC(=O)CC[C@H](NC(=O)CCCCCCCCCCCCCCCCCCC(=O)O)C(=O)O)C(=O)N[C@@H](CC(N)=O)C(=O)N[C@@H]([C@@H](C)O)C(=O)N[C@@H](C)C(=O)N[C@@H]([C@@H](C)O)C(=O)N1)[C@@H](C)O)C(=O)N1CCC[C@H]1C(=O)N[C@@H](CO)C(=O)N[C@@H](CO)C(=O)N[C@H](C(=O)N[C@@H](CC(N)=O)C(=O)N[C@H](C(=O)NCC(=O)N[C@@H](CO)C(=O)N[C@@H](CCCNC(=N)N)C(=O)N[C@H](C(=O)N[C@@H](Cc1ccc(O)cc1)C(N)=O)[C@@H](C)O)C(C)C)[C@@H](C)O, Synthetic analogue; also called compound 16) | 19.1 | 17.1 nM
KCNTATCATQRLANFLRHSSPNFGAIPSSTNVGSETY (C20 diacid-gGlu on the alpha amino group of the N-terminal residue (Lys1); disulfide Cys2-Cys7; C-terminal amide, Synthetic analogue; also called compound 23) [N^α1-[(4S)-4-carboxy-4-(19-carboxynonadecanoylamino)butanoyl]-[Arg17,Pro21,Pro27,Glu35]-h-amylin] | 25 | 21.8 nM
KCNTATCATQRLANFLRHSSPNFGAIPSSTNVGHNTY (C20 diacid-gGlu on the alpha amino group of the N-terminal residue (Lys1); disulfide Cys2-Cys7; C-terminal amide, Synthetic analogue; also called compound 40) [N^α1-[(4S)-4-carboxy-4-(19-carboxynonadecanoylamino)butanoyl]-[Arg17,Pro21,Pro27,His34]-h-amylin] | 31.1 | 17.1 nM
KCNTATCATQRLANFLRHSSPNFGAIPSSTNVGRNTY (C20 diacid-gGlu on the alpha amino group of the N-terminal residue (Lys1); disulfide Cys2-Cys7; C-terminal amide, Synthetic analogue; also called compound 39) [N^α1-[(4S)-4-carboxy-4-(19-carboxynonadecanoylamino)butanoyl]-[Arg17,Pro21,Pro27,Arg34]-h-amylin] | 29 | 19.3 nM

Further binders by falling IC50 [2], results first:

Ratio hCT/hAmylin binding [1] | IC50 [2] | Binder
36.7 | 20.4 nM | KCNTATCATQRLAEFLRHSSPNFGAIPSSTNVGSNTY (C20 diacid-gGlu-2xOEG on the alpha amino group of the N-terminal residue (Lys1); disulfide Cys2-Cys7; C-terminal amide, Synthetic analogue; also called compound 19)
16.5 | 11.1 nM | {C20 diacid-γGlu}-KCNTATCATQRLAEFLRHSSPNFGAPLSSTNVGSNTY-NH2 (disulfide 2-7; SMILES CC(C)C[C@H](NC(=O)[C@H](CCCNC(=N)N)NC(=O)[C@H](CCC(N)=O)NC(=O)[C@@H](NC(=O)[C@H](C)NC(=O)[C@@H]1CSSC[C@H](NC(=O)[C@H](CCCCN)NC(=O)CC[C@H](NC(=O)CCCCCCCCCCCCCCCCCCC(=O)O)C(=O)O)C(=O)N[C@@H](CC(N)=O)C(=O)N[C@@H]([C@@H](C)O)C(=O)N[C@@H](C)C(=O)N[C@@H]([C@@H](C)O)C(=O)N1)[C@@H](C)O)C(=O)N[C@@H](C)C(=O)N[C@@H](CCC(=O)O)C(=O)N[C@@H](Cc1ccccc1)C(=O)N[C@@H](CC(C)C)C(=O)N[C@@H](CCCNC(=N)N)C(=O)N[C@@H](Cc1c[nH]cn1)C(=O)N[C@@H](CO)C(=O)N[C@@H](CO)C(=O)N1CCC[C@H]1C(=O)N[C@@H](CC(N)=O)C(=O)N[C@@H](Cc1ccccc1)C(=O)NCC(=O)N[C@@H](C)C(=O)N1CCC[C@H]1C(=O)N[C@@H](CC(C)C)C(=O)N[C@@H](CO)C(=O)N[C@@H](CO)C(=O)N[C@H](C(=O)N[C@@H](CC(N)=O)C(=O)N[C@H](C(=O)NCC(=O)N[C@@H](CO)C(=O)N[C@@H](CC(N)=O)C(=O)N[C@H](C(=O)N[C@@H](Cc1ccc(O)cc1)C(N)=O)[C@@H](C)O)C(C)C)[C@@H](C)O, Synthetic analogue; also called compound 7) [N^α1-[(4S)-4-carboxy-4-(19-carboxynonadecanoylamino)butanoyl]-[Glu14,Arg17,Pro21,Pro26]-h-amylin]
12.5 | 10.9 nM | {C20 diacid-γGlu}-KCNTATCATQRLAEFLRHSSPNFGAIPSSTNVGHNTY-NH2 (disulfide 2-7; SMILES CC[C@H](C)[C@H](NC(=O)[C@H](C)NC(=O)CNC(=O)[C@H](Cc1ccccc1)NC(=O)[C@H](CC(N)=O)NC(=O)[C@@H]1CCCN1C(=O)[C@H](CO)NC(=O)[C@H](CO)NC(=O)[C@H](Cc1c[nH]cn1)NC(=O)[C@H](CCCNC(=N)N)NC(=O)[C@H](CC(C)C)NC(=O)[C@H](Cc1ccccc1)NC(=O)[C@H](CCC(=O)O)NC(=O)[C@H](C)NC(=O)[C@H](CC(C)C)NC(=O)[C@H](CCCNC(=N)N)NC(=O)[C@H](CCC(N)=O)NC(=O)[C@@H](NC(=O)[C@H](C)NC(=O)[C@@H]1CSSC[C@H](NC(=O)[C@H](CCCCN)NC(=O)CC[C@H](NC(=O)CCCCCCCCCCCCCCCCCCC(=O)O)C(=O)O)C(=O)N[C@@H](CC(N)=O)C(=O)N[C@@H]([C@@H](C)O)C(=O)N[C@@H](C)C(=O)N[C@@H]([C@@H](C)O)C(=O)N1)[C@@H](C)O)C(=O)N1CCC[C@H]1C(=O)N[C@@H](CO)C(=O)N[C@@H](CO)C(=O)N[C@H](C(=O)N[C@@H](CC(N)=O)C(=O)N[C@H](C(=O)NCC(=O)N[C@@H](Cc1c[nH]cn1)C(=O)N[C@@H](CC(N)=O)C(=O)N[C@H](C(=O)N[C@@H](Cc1ccc(O)cc1)C(N)=O)[C@@H](C)O)C(C)C)[C@@H](C)O, Synthetic analogue; also called compound 17)
13.9 | 8.01 nM | {C20 diacid-γGlu}-KCNTATCATQRLANFLRHSSPNFGAIPSSTNVGPETY-NH2 (disulfide 2-7; SMILES CC[C@H](C)[C@H](NC(=O)[C@H](C)NC(=O)CNC(=O)[C@H](Cc1ccccc1)NC(=O)[C@H](CC(N)=O)NC(=O)[C@@H]1CCCN1C(=O)[C@H](CO)NC(=O)[C@H](CO)NC(=O)[C@H](Cc1c[nH]cn1)NC(=O)[C@H](CCCNC(=N)N)NC(=O)[C@H](CC(C)C)NC(=O)[C@H](Cc1ccccc1)NC(=O)[C@H](CC(N)=O)NC(=O)[C@H](C)NC(=O)[C@H](CC(C)C)NC(=O)[C@H](CCCNC(=N)N)NC(=O)[C@H](CCC(N)=O)NC(=O)[C@@H](NC(=O)[C@H](C)NC(=O)[C@@H]1CSSC[C@H](NC(=O)[C@H](CCCCN)NC(=O)CC[C@H](NC(=O)CCCCCCCCCCCCCCCCCCC(=O)O)C(=O)O)C(=O)N[C@@H](CC(N)=O)C(=O)N[C@@H]([C@@H](C)O)C(=O)N[C@@H](C)C(=O)N[C@@H]([C@@H](C)O)C(=O)N1)[C@@H](C)O)C(=O)N1CCC[C@H]1C(=O)N[C@@H](CO)C(=O)N[C@@H](CO)C(=O)N[C@H](C(=O)N[C@@H](CC(N)=O)C(=O)N[C@H](C(=O)NCC(=O)N1CCC[C@H]1C(=O)N[C@@H](CCC(=O)O)C(=O)N[C@H](C(=O)N[C@@H](Cc1ccc(O)cc1)C(N)=O)[C@@H](C)O)C(C)C)[C@@H](C)O, Synthetic analogue; also called compound 29)
